The record followed here is patent US20150203577A1 (Chugai, published 2015).

T1: mouse FcγRII extracellular domain with C-terminal His tag (mouse, UniProt P08101 30-210)
T1 construct: Made on the basis of NCBI NP-034317.1; also called mFcγRII; mFcgRII
T1 sequence: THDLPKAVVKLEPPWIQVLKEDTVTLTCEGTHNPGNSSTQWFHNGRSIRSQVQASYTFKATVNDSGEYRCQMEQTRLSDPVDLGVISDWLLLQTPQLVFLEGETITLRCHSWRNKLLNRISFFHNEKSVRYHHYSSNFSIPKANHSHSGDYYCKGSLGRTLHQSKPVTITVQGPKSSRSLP

T2: mouse FcγRIII extracellular domain with C-terminal His tag (mouse, UniProt P08508 31-215)
T2 construct: Made on the basis of NCBI NP-034318.2; also called mFcγRIII; mFcgRIII
T2 chain: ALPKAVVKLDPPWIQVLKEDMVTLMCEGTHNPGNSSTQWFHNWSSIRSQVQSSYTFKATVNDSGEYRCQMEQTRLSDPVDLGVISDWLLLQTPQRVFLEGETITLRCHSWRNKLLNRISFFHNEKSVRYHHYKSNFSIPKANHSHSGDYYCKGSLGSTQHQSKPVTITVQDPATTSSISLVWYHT

T3: mouse FcγRII extracellular domain, C-terminally His-tagged (mouse, UniProt P08101 30-210)
T3 construct: the whole entry is named; also called mFcγRII; mFcgRII
T3 sequence: T1 sequence

T4: mouse FcγRIII extracellular domain, C-terminally His-tagged (mouse, UniProt P08508 31-215)
T4 construct: the whole entry is named; also called mFcγRIII; mFcgRIII
T4 chain: T2 chain

B1: H237-MB432/MRAL-k0 (antibody, mouse IgG1, kappa)
heavy: QVQLQESGPGLVKPSETLSLTCAVSGHSISHDHAWSWVRQPPGEGLEWIGFISYSGITNYNPSLQGRVTISRDNSKNTLYLQMNSLRAEDTAVYYCARSLARTTAMDYWGEGTLVTVSSAKTTPPSVYPLAPGSAAQTNSMVTLGCLVKGYFPEPVTVTWNSGSLSSGVHTFPAVLQSDLYTLSSSVTVPSSTWPSETVTCNVAHPASSTKVDKKIVPRDCGCKPCICQPNEVEDVFIFPPKPKDVLTITLTPKVTCVVVDISKDDPEVQFSWFVDDVEVHTAQTQPREEQFNSTFRSVSELPIMHQDWLNGKEFKCRVNSAAFPAPIEKTISKTKGRPKAPQVYTIPPPKEQMAKDKVSLTCMITDFFPEDITVEWQWNGQPAENYKNTQPIMDTDGSYFVYSKLNVQKSNWEAGNTFTCSVLHEGLHNHHTEKSLSHSPGK
light: not shown
notes: mIgG1 with T230Q/V231P/P232N/S238E/S239D (EU); template T9; copies: 2 + 2
B2: H237-MB425/MRAL-k0 (antibody, mouse IgG1, kappa)
heavy: B1 heavy with Q229I, N231A
light: not shown
notes: mIgG1 with T230I/V231P/P232A/S238E/S239D (EU); template T7; copies: 2 + 2
B3: H237-MB476/MRAL-k0 (antibody, mouse IgG1, kappa)
heavy: B1 heavy with D235E
light: not shown
notes: Template; copies: 2 + 2
B4: H237-MB533/MRAL-k0 (antibody, mouse IgG1, kappa)
heavy: B1 heavy with D235E, S294L, N320D, A322D
light: not shown
notes: copies: 2 + 2
B5: H237-MB534/MRAL-k0 (antibody, mouse IgG1, kappa)
heavy: B1 heavy with D235E, S294L, N320D, K330R
light: not shown
notes: copies: 2 + 2
B6: H237-MB536/MRAL-k0 (antibody, mouse IgG1, kappa)
heavy: B1 heavy with D235E, N320D, A322D, K330R
light: not shown
notes: copies: 2 + 2
B7: H237-MB530/MRAL-k0 (antibody, mouse IgG1, kappa)
heavy: B1 heavy with D235E, N320D, A322D
light: not shown
notes: copies: 2 + 2
B8: H237-MB531/MRAL-k0 (antibody, mouse IgG1, kappa)
heavy: B1 heavy with D235E, N320D, K330R
light: not shown
notes: copies: 2 + 2
B9: H237-MB528/MRAL-k0 (antibody, mouse IgG1, kappa)
heavy: B1 heavy with D235E, S294L, A322D
light: not shown
notes: copies: 2 + 2
B10: H237-MB529/MRAL-k0 (antibody, mouse IgG1, kappa)
heavy: B1 heavy with D235E, S294L, K330R
light: not shown
notes: copies: 2 + 2
B11: H237-MB532/MRAL-k0 (antibody, mouse IgG1, kappa)
heavy: B1 heavy with D235E, A322D, K330R
light: not shown
notes: copies: 2 + 2
B12: H237-MB537/MRAL-k0 (antibody, mouse IgG1, kappa)
heavy: B1 heavy with D235E, S294L, N320D, A322D, K330R
light: not shown
notes: also called M6537; copies: 2 + 2
B13: H237-MB526/MRAL-k0 (antibody, mouse IgG1, kappa)
heavy: B1 heavy with D235E, S294L
light: not shown
notes: copies: 2 + 2
B14: H237-MB535/MRAL-k0 (antibody, mouse IgG1, kappa)
heavy: B1 heavy with D235E, S294L, A322D, K330R
light: not shown
notes: copies: 2 + 2
B15: H237-MB527/MRAL-k0 (antibody, mouse IgG1, kappa)
heavy: B1 heavy with D235E, S294L, N320D
light: not shown
notes: also called MG527; copies: 2 + 2

Residue numbers refer to the chain shown, from its start. Names and notes keep the numbering of the source. Where only a bound is given, the exact number is not on record here.

One may read the Kd as the concentration at which binding is half-saturated. Read a low Kd as a tighter complex.

For the first assay, the target named is T1, mouse FcγRII extracellular domain with …. As to the kind of experiment: SPR Biacore T200. In general terms: Surface plasmon resonance follows binding to a sensor surface in real time, without labels.
Turning to B1, the Kd came to 0.613 nM and the “relative mFcγRII-binding activity (mIgG1 = 1)” value is 343.
In the case of B2, the “relative mFcγRII-binding activity (mIgG1 = 1)” value came to 194.

The target in another assay is T2, mouse FcγRIII extracellular domain with …. As to the kind of experiment: SPR Biacore T200.
Turning to B1, binding was characterised by a dissociation constant (Kd) of 26.4 nM and the “relative mFcγRIII-binding activity (mIgG1 = 1)” value worked out at 10.7.
Consider B2, for which the “relative mFcγRIII-binding activity (mIgG1 = 1)” value is 5.5.

The next assay addresses T1, mouse FcγRII extracellular domain with …. Briefly: SPR Biacore T200. The source holds these as a separate data set.
Turning to B1, the “relative mFcγRII-binding activity (mIgG1 = 1)” value amounted to 343.
Consider B2, for which the “relative mFcγRII-binding activity (mIgG1 = 1)” value was 194.

A further assay deals with T2, mouse FcγRIII extracellular domain with …. Briefly: SPR Biacore T200. The source holds these as a separate data set.
Consider B1, for which the “relative mFcγRIII-binding activity (mIgG1 = 1)” value came out at 10.7.
In the case of B2, the “relative mFcγRIII-binding activity (mIgG1 = 1)” value was found to be 5.5.

For another assay, the target named is T1, mouse FcγRII extracellular domain with …. Briefly: SPR Biacore T200. The source holds these as a separate data set.
As for B1, the affinity, expressed as Kd, was 0.613 nM.
For the molecule B2, the Kd came out at 1.08 nM.

A further assay has as its target T2, mouse FcγRIII extracellular domain with …. As to the kind of experiment: SPR Biacore T200. This is another data set of the same source.
For the molecule B1, the Kd is 26.4 nM.
Regarding B2, binding was characterised by a dissociation constant (Kd) of 51 nM.

For another assay, the target named is T3, mouse FcγRII extracellular domain, …. Briefly: SPR Biacore T200, KD ratio. From the text: (§1) The antibody H chain variable region used was the variable region H237 (SEQ ID NO: 1) of the H chain VH3-IgG1 of the anti-IL-6 receptor antibody Fv4-IgG1 described in WO2009/125825. The antibody L chain commonly used was the L chain MRAL-k0 (SEQ ID NO: 2) of the anti-IL-6 receptor antibody tocilizumab. H237-MB476/MRAL-k0 and H237-MB515/MRAL-k0 were used as templates to introduce new alterations. These variants were expressed and purified by the method of Reference Example 1 and evaluated for their binding to mFcγRII and mFcγRIII by the method of Reference Example 2 using Biacore T200.
(§2) Each altered antibody was analyzed for its interaction with each Fcγ receptor prepared above using Biacore T100 (GE Healthcare Japan Corp.), Biacore T200 (GE Healthcare Japan Corp.), Biacore A100, or Biacore 4000. The running buffer used was HBS-EP+ (GE Healthcare Japan Corp.). The assay temperature was set to 25° C. The sensor chips used were chips prepared by immobilizing Protein L (ACTIGEN or BioVision) onto Series S Sensor Chip CM5 (GE Healthcare Japan Corp.) or Series S Sensor Chip CM4 (GE Healthcare Japan Corp.) by the amine coupling method.
(§3) In order to calculate the KD value of each altered antibody for FcγR, kinetic analysis was conducted according to the following method: first, the antibody of interest was captured onto any of these chips and allowed to interact with mFcγR diluted with a running buffer. For the obtained sensorgram, the assay results were globally fit into the 1:1 Langmuir binding model using Biacore Evaluation Software to calculate an association rate constant ka (L/mol/s) and a dissociation rate constant kd (1/s). From these values, the dissociation constant KD (mol/L) was calculated.
With B3, the “relative mFcγRII-binding activity (mIgG1 = 1)” value is 261 fold.
The same measure, in the same setting: to B4 belongs 394 fold; to B5, 421 fold.
In the case of B6, the “relative mFcγRII-binding activity (mIgG1 = 1)” value worked out at 396 fold.
On to B7, for which the “relative mFcγRII-binding activity (H237-mIgG1/MRAL-k0 = 1)” value was at least 350 fold, the “relative mFcγRII-binding activity (mIgG1 = 1)” value was found to be 623 fold and the “relative mFcγRII-binding activity (template H237-MB476/MRAL-k0 = 1)” value is at least 1.4 fold.
With B8, the “relative mFcγRII-binding activity (mIgG1 = 1)” value came to 229 fold.
In the case of B9, the “relative mFcγRII-binding activity (mIgG1 = 1)” value was 375 fold.
Regarding B10, the “relative mFcγRII-binding activity (mIgG1 = 1)” value came to 282 fold.
Turning to B11, the “relative mFcγRII-binding activity (mIgG1 = 1)” value was 329 fold.
For B12, the “relative mFcγRII-binding activity (mIgG1 = 1)” value worked out at 510 fold.
On the same count and under the same terms, the same measure for B13: 232 fold; for B14: 422 fold; for B15: 273 fold.

A further assay addresses T4, mouse FcγRIII extracellular domain, …. As to the kind of experiment: SPR Biacore T200, KD ratio.
Source text: as §1, §2, §3
In the case of B3, the “relative mFcγRIII-binding activity (mIgG1 = 1)” value was 2.6 fold.
As to B4, the “relative mFcγRIII-binding activity (mIgG1 = 1)” value was 7.2 fold.
B5: the “relative mFcγRIII-binding activity (mIgG1 = 1)” value was determined as 33.8 fold.
For the molecule B6, the “relative mFcγRIII-binding activity (mIgG1 = 1)” value was found to be 7.7 fold.
For the molecule B7, the “relative mFcγRIII-binding activity (mIgG1 = 1)” value was determined as 8 fold.
Regarding B8, the “relative mFcγRIII-binding activity (mIgG1 = 1)” value was 3.3 fold.
The same measure, in the same setting: the same measure for B9: 14.6 fold.
Same read-out and setting: to B10 belongs 5.9 fold; to B11, 6.2 fold; to B12, 8.9 fold.
Same read-out and setting: the same measure for B13: 8.5 fold; for B14: 8.5 fold; for B15: 5.5 fold.

A further assay addresses T1, mouse FcγRII extracellular domain with …. As to the kind of experiment: SPR Biacore T200; KD mFcγRIII / KD mFcγRII.
B1: the “I/A (mFcγRII selectivity)” value was 43.1 and the “relative I/A (mFcγRII selectivity) (mIgG1 = 1)” value is 32.2.
With B2, the “relative I/A (mFcγRII selectivity) (mIgG1 = 1)” value is 35.2.

The target of another assay is T3, mouse FcγRII extracellular domain, …. Briefly: SPR Biacore T200, KD ratio, template MB476.
Source text: as §1, §2, §3
As to B3, the “relative mFcγRII-binding activity (template = 1)” value turned out to be 1 fold.
Regarding B4, the “relative mFcγRII-binding activity (template = 1)” value stood at 1.51 fold.
Same read-out and setting: the same measure for B5: 1.61 fold; for B6: 1.52 fold; for B7: 2.38 fold.
Turning to B8, the “relative mFcγRII-binding activity (template = 1)” value was found to be 0.88 fold.
Consider B9, for which the “relative mFcγRII-binding activity (template = 1)” value is 1.44 fold.
For the molecule B10, the “relative mFcγRII-binding activity (template = 1)” value stood at 1.08 fold.
As for B11, the “relative mFcγRII-binding activity (template = 1)” value was found to be 1.26 fold.
With B12, the “relative mFcγRII-binding activity (template = 1)” value is 1.95 fold.
Same read-out and setting: the same measure for B13: 0.89 fold; for B14: 1.61 fold.
Take B15: the “relative mFcγRII-binding activity (template = 1)” value was 1.05 fold.

A further assay addresses T4, mouse FcγRIII extracellular domain, …. Briefly: SPR Biacore T200, KD ratio, template MB476.
Source text: as §1, §2, §3
As to B3, the “relative mFcγRIII-binding activity (template = 1)” value worked out at 1 fold.
Consider B4, for which the “relative mFcγRIII-binding activity (template = 1)” value stood at 2.74 fold.
With B5, the “relative mFcγRIII-binding activity (template = 1)” value stood at 12.8 fold.
For B6, the “relative mFcγRIII-binding activity (template = 1)” value came out at 2.9 fold.
The same measure, in the same setting: to B7 belongs 3.04 fold; to B8, 1.25 fold; to B9, 5.52 fold.
For B10, the “relative mFcγRIII-binding activity (template = 1)” value was found to be 2.24 fold.
Take B11: the “relative mFcγRIII-binding activity (template = 1)” value amounted to 2.35 fold.
As for B12, the “relative mFcγRIII-binding activity (template = 1)” value worked out at 3.36 fold.
The same measure, in the same setting: to B13 belongs 3.23 fold; to B14, 3.21 fold.
For the molecule B15, the “relative mFcγRIII-binding activity (template = 1)” value came to 2.09 fold.
